Data: patent US20020016443A1, “Antiproliferative factor” (priority 1996, published 2002)

Test system: APF activity on primary normal bladder epithelial cells
Assay: Blocking of APF antiproliferative activity by recombinant growth factors (^3H-thymidine incorporation)
Type: cell-based, human
Description: ^3H-Thymidine Incorporation. Primary normal adult human bladder epithelial cells (HBE) were grown from biopsies obtained at autopsy from patients who had no history of bladder disorder. HBE cells were plated at a density of 1×10^4 cells/well onto 96 well tissue culture plates and incubated at 37° C. overnight (resulting in approximately 60% confluence the following day). The medium was then changed to MEM containing only 1% glutamine and 1% antibiotic/ antimycotic solution, and the cells were incubated at 37° C. overnight. […] Cells were then trypsinized, and insoluble cell contents harvested and methanol-fixed onto glass fiber filter paper, as previously described^62; the amount of radioactivity incorporated was determined as counts per minute using a Beckman LS 3801 scintillation counter. […]
To determine whether the antiproliferative effect of the APF on bladder epithelial cells might be due to a decrease in HB-EGF production, primary normal bladder epithelial cells were simultaneously incubated with varying levels of recombinant HB-EGF, EGF, or IGF1 and low molecular weight urine fractions from IC patients. […] This effect was evident using a concentration of HB-EGF (10 ng/ml) in the range previously determined for normal controls (2-22 ng/ml, mean 6.33 ng/ml) 12 as well as higher concentrations (30 and 100 ng/ml). […]

B1: heparin-binding epidermal growth factor-like growth factor (protein, UniProt Q99075 63-148, looked up)
Heparin-binding EGF-like …: DLQEADLDLLRVTLSSKPQALATPNKEEHGKRKKKGKGLGKKRDPCLRKYKDFCIHGECKYVKELRAPSCICHPGYHGERCHGLSL
10 ng purified APF, 30 ng/ml of HB-EGF, normal and IC patient cells
  inhibition of antiproliferative activity of HPLC-purified APF: inhibited for 2 of 3 APF specimens
co-incubation with low molecular weight IC urine fractions, HB-EGF 10, 30 and 100 ng/ml, EGF, IGF1 up to about 12 and 25 fold normal levels
  inhibition of IC urine antiproliferative activity by recombinant growth factor: inhibited by HB-EGF in a dose-dependent manner
